B1: DDA3-degron 23-residue peptide (peptide)
peptide: SPEKLEEILDEANRLAAQLEQCAL
notes: DDA3; the region covering residues 70-93 was named as the potential degron and a 23-residue peptide was synthesized; residues 70-93 are 24 residues, the peptide is said to have 23; also called DDA3 residues 70–93; source: synthetic peptide (Shanghai Apeptide Co., Ltd.)
B2: CEP152 degron peptide (peptide)
peptide: ELEKAKQECQDLKGKLEKCCRH
notes: stretch of CEP152, a reported ASB7 substrate; source: synthetic peptide (Shanghai Apeptide Co., Ltd.)
B3: LZTS1 degron peptide, 17 residues (ELESLMKEQDLLETKLR) (peptide)
peptide: ELESLMKEQDLLETKLR
notes: LZTS1 degron, positions E1 to R17 of the degron numbering; also called 17-residue degron; source: synthetic peptide (Shanghai Apeptide Co., Ltd.)
B4: CLIP2 degron peptide (peptide)
peptide: EIGELKAVMEGIKMEHQLELGN
notes: stretch of CLIP2, a reported ASB7 substrate; source: synthetic peptide (Shanghai Apeptide Co., Ltd.)
B5: DDA3 degron peptide (peptide)
peptide: PEKLEEILDEANRLAAQLEQCAL
notes: stretch of DDA3; the text names the region as residues 70-93 (24 residues) and the peptide as 23 residues; also called DDA3 peptide; source: synthetic peptide (Shanghai Apeptide Co., Ltd.)
B6: LZTS1 degron peptide Y19R (peptide)
peptide: RQELESLMKEQDLLETKLRSRER
notes: numbers count on: the degron, E1 = third letter of the 23-residue peptide; source: synthetic peptide (Shanghai Apeptide Co., Ltd.)
B7: LZTS1 degron peptide, 21 residues (ELESLMKEQDLLETKLRSYER) (peptide)
peptide: ELESLMKEQDLLETKLRSYER
notes: LZTS1 degron shortened by two residues at the N-terminus; source: synthetic peptide (Shanghai Apeptide Co., Ltd.)
B8: GIGYF1 degron peptide (peptide)
peptide: EDDEGLKHLQQEAEKLVASLQDS
notes: stretch of GIGYF1, a reported ASB7 substrate; source: synthetic peptide (Shanghai Apeptide Co., Ltd.)
B9: LZTS1 degron peptide, 21 residues (RQELESLMKEQDLLETKLRSY) (peptide)
peptide: RQELESLMKEQDLLETKLRSY
notes: LZTS1 degron shortened by two residues at the C-terminus; source: synthetic peptide (Shanghai Apeptide Co., Ltd.)
B10: CCDC17 degron peptide (peptide)
peptide: LEQEIRELQAEAGRTRGALEVLG
notes: stretch of CCDC17, a reported ASB7 substrate; also called CCDC17 peptide; source: synthetic peptide (Shanghai Apeptide Co., Ltd.)
B11: GST-fused LZTS1-degron (peptide)
chain: VLQLQQEKRQLRQELESLMKEQDLLETKLRSYEREKTSFG
notes: degron stretch of LZTS1; pGEX vector; also called GST-tagged LZTS1; not shown: GST, N-terminal, kept
B12: GST-fused CCDC17 degron peptide (peptide)
chain: GMSRLFGLEQEIRELQAEAGRTRGALEVLGARIQELQAE
notes: degron stretch of CCDC17; pGEX vector; also called GST-tagged CCDC17; not shown: GST, N-terminal, kept
B13: GST-fused CEP152 degron peptide (peptide)
chain: GHCFQELEKAKQECQDLKGKLEKCCRHLQHLERKHK
notes: degron stretch of CEP152; pGEX vector; also called GST-tagged CEP152; not shown: GST, N-terminal, kept
B14: GST-fused GIGYF1 degron peptide (peptide)
chain: SSAGPPGDLEDDEGLKHLQQEAEKLVASLQDSSLEEEQFT
notes: degron stretch of GIGYF1; pGEX vector; also called GST-tagged GIGYF1; not shown: GST, N-terminal, kept
B15: GST-fused CLIP2 degron peptide (peptide)
chain: SGPGAQQKEIGELKAVMEGIKMEHQLELGNLQAKHDLET
notes: degron stretch of CLIP2; pGEX vector; also called GST-tagged CLIP2; not shown: GST, N-terminal, kept

Each binder was assayed against T1, ASB7-Elongin B-Elongin C ternary complex (human, UniProt Q9H672 11-318; Q15370 1-104; Q15369 17-112) (assay: ITC; peptide (0.8–4 mM) titrated into the ASB7 complex (39–156 µM); 16 °C; 20 mM Tris-HCl pH 7.5, 150 mM NaCl; MicroCal PEAQ-ITC). Details: both partners purified.
T1 construct: ASB7, human, residues 11-318; Elongin B, human, residues 1-104; ASB7 cloned into pET28-MKH8SUMO (Addgene plasmid #79526 is the vector); Elongin B and C in pCDFDuet-1; tag cleaved with TEV protease; also called ASB7-Elongin B/C; wild-type ASB7; source: E. coli BL21 (DE3), co-expressed, purified (Ni-NTA, Superdex 200); not shown: SUMO, N-terminal, cleaved; copies: + +
Target sequence in this assay (Q9H672 11-318, chain 1 of 3): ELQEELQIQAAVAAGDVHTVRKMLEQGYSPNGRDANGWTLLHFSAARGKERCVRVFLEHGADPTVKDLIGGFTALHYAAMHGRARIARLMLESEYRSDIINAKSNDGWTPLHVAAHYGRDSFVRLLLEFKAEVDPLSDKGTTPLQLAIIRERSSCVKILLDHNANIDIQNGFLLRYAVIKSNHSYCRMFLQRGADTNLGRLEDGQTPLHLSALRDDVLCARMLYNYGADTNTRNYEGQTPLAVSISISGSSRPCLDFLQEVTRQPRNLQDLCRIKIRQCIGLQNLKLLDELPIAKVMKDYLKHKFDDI
Target sequence in this assay (Q15370 1-104, chain 2 of 3): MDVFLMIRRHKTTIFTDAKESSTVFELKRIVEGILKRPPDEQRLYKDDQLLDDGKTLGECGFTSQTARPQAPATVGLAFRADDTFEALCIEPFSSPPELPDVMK
Target sequence in this assay (Q15369 17-112, chain 3 of 3): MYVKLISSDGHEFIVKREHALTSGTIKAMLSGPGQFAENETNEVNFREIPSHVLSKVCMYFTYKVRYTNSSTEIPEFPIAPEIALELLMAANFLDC
In the case of B1, the Kd is reported as 1300 nM.

What follows are binders tested against T2, ASB7-Elongin B-Elongin C ternary complex (wild-type ASB7, residues 11-318) (human, UniProt Q9H672 11-318; Q15370 1-104; Q15369 17-112) (assay: ITC; peptide in the syringe titrated into ASB7-Elongin B/C in the cell; MicroCal PEAQ-ITC, 16 °C, 20 mM Tris-HCl pH 7.5, 150 mM NaCl; 39–156 μM protein, 0.8–4 mM peptide; repeated three times, mean ± SD). Details: both partners purified.
T2 construct: human ASB7, residues 11-318; human Elongin B, residues 1-104; also called ASB7-Elongin B/C; WT; source: E. coli BL21 (DE3), co-expressed, purified (Ni-NTA, Superdex 200); not shown: SUMO, N-terminal, cleaved; copies: + +
T2 sequence (Q9H672 11-318, chain 1 of 3): as the sequence (Q9H672 11-318, chain 1 of 3) above
T2 sequence (Q15370 1-104, chain 2 of 3): as the sequence (Q15370 1-104, chain 2 of 3) above
T2 sequence (Q15369 17-112, chain 3 of 3): as the sequence (Q15369 17-112, chain 3 of 3) above
With B2 the “stoichiometry N” value was 1.27.
In the case of B3, the Kd is reported as 5100 nM and the “stoichiometry N” value is reported as 1.12.
With B4 the Kd was 700 nM and the “stoichiometry N” value was 0.71.
B5 was tested, and the “stoichiometry N” value was 1.32.
B6 was tested, and the Kd was 700 nM and the “stoichiometry N” value was 0.71.
With B7 the Kd was 700 nM and the “stoichiometry N” value was 0.68.
B8 was tested, and the Kd was 1000 nM and the “stoichiometry N” value was 0.78.
In the case of B9, the Kd is reported as 900 nM and the “stoichiometry N” value is reported as 0.91.
With B10 the Kd was 1100 nM and the “stoichiometry N” value was 0.76.

Each binder was assayed against T1, ASB7-Elongin B-Elongin C ternary complex (assay: pull-down; GST or GST-fusion degron peptides (~50 µg) on glutathione magnetic beads, ~30 µg purified ASB7-Elongin B/C added; 20 mM Tris-HCl pH 7.5, 400 mM NaCl, 2 mM β-mercaptoethanol; 4 °C; glutathione elution, Coomassie-stained SDS-PAGE). Details: both partners purified.
B11: binds.
B12: binds.
B13: binds.
B14: binds.
B15: binds.
